This note sets out measurements from the supplement of paper PMC5998384.

In series [1] the test system is HeLa Kyoto. Kind of series: solubility in G1/S (NP-40 vs SDS abundance) (log2 ratio); higher = more soluble. The following applies: cell cycle stage: G1/S.
Series [2] has as its system HeLa Kyoto. The series is described as follows: solubility change mitosis vs G1/S (difference of NP-40 vs SDS log2 ratios) (log2 ratio difference); higher = more soluble in mitosis.
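Throughout, for solubility change mitosis vs G1/S (difference of NP-40 vs SDS log2 ratios): synchronized HeLa Kyoto cells (double thymidine block for G1/S, nocodazole release for mitosis), protein amounts in NP-40 versus SDS lysates quantified by mass spectrometry, three biological replicates.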
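Throughout, for solubility in G1/S (NP-40 vs SDS abundance): HeLa Kyoto cells arrested at G1/S by double thymidine block, proteins quantified by TMT10plex mass spectrometry in mild NP-40 versus SDS extracts, three biological replicates.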

As to “MAAEALAAEAVASRLERQEEDIRWLWSEVERLRDEQLNAPYSCQAEGPCLTREVAQLRAENCDLRHRLCSLRLCLAEERSRQATLESAELEAAQEAGAQPPPSQSQDKDMKKKKMKESEADSEVKHQPIFIKERLKLFEILKKDHQLLLAIYGKKGDTSNIITVRVADGQTVQGEVWKTTPYQVAAEISQELAESTVIAKVNGELWDLDRPLEGDSSLELLTFDNEEAQAVYWHSSAHILGEAMELYYGGHLCYGPPIENGFYYDMFIEDRAVSSTELSALENICKAIIKEKQPFERLEVSKEILLEMFKYNKFKCRILNEKVNTATTTVYRCGPLIDLCKGPHVRHTGKIKTIKIFKNSSTYWEGNPEMETLQRIYGISFPDNKMMRDWEKFQEEAKNRDHRKIGKEQELFFFHDLSPGSCFFLPRGAFIYNTLTDFIREEYHKRDFTEVLSPNMYNSKLWEASGHWQHYSENMFTFEIEKDTFALKPMNCPGHCLMFAHRPRSWREMPIRFADFGVLHRNELSGTLSGLTRVRRFQQDDAHIFCTVEQIEEEIKGCLQFLQSVYSTFGFSFQLNLSTRPENFLGEIEMWNEAEKQLQNSLMDFGEPWKMNPGDGAFYGPKIDIKIKDAIGRYHQCATIQLDFQLPIRFNLTYVSKDGDDKKRPVIIHRAILGSVERMIAILSENYGGKWPFWLSPRQVMVIPVGPTCEKYALQVSSEFFEEGFMADVDLDHSCTLNKKIRNAQLAQYNFILVVGEKEKIDNAVNVRTRDNKIHGEILVTSAIDKLKNLRKTRTLNAEEAF [TARSL2]”, the “solubility in G1/S (log2)” value in the series on HeLa Kyoto [1] is -0.498. The “solubility change mitosis (log2)” value with HeLa Kyoto [2] was 0.191.
In the case of NES, the “solubility in G1/S (log2)” value in the series on HeLa Kyoto [1] was -1.35. For the same substance, in the series with HeLa Kyoto [2], the “solubility change mitosis (log2)” value amounted to 0.912.
Taken in the same sequence, the figures for “MEPLKVEKFATAKRGNGLRAVTPLRPGELLFRSDPLAYTVCKGSRGVVCDRCLLGKEKLMRCSQCRVAKYCSAKCQKKAWPDHKRECKCLKSCKPRYPPDSVRLLGRVVFKLMDGAPSESEKLYSFYDLESNINKLTEDKKEGLRQLVMTFQHFMREEIQDASQLPPAFDLFEAFAKVICNSFTICNAEMQEVGVGLYPSISLLNHSCDPNCSIVFNGPHLLLRAVRDIEVGEELTICYLDMLMTSEERRKQLRDQYCFECDCFRCQTQDKDADMLTGDEQVWKEVQESLKKIEELKAHWKWEQVLAMCQAIISSNSERLPDINIYQLKVLDCAMDACINLGLLEEALFYGTRTMEPYRIFFPGSHPVRGVQVMKVGKLQLHQGMFPQAMKNLRLAFDIMRVTHGREHSLIEDLILLLEECDANIRAS [SMYD3]” were -0.0441 and -0.167.
In the same order, the values of “MAEGSRGGPTCSGVGGRQDPVSGSGGCNFPEYELPELNTRAFHVGAFGELWRGRLRGAGDLSLREPPASALPGSQAADSDREDAAVARDLDCSLEAAAELRAVCGLDKLKCLEDGEDPEVIPENTDLVTLGVRKRFLEHREETITIDRACRQETFVYEMESHAIGKKPENSADMIEEGELILSVNILYPVIFHKHKEHKPYQTMLVLGSQKLTQLRDSIRCVSDLQIGGEFSNTPDQAPEHISKDLYKSAFFYFEGTFYNDKRYPECRDLSRTIIEWSESHDRGYGKFQTARMEDFTFNDLCIKLGFPYLYCHQGDCEHVIVITDIRLVHHDDCLDRTLYPLLIKKHWLWTRKCFVCKMYTARWVTNNDSFAPEDPCFFCDVCFRMLHYDSEGNKLGEFLAYPYVDPGTFN [SNAPC3]” are -0.0618 and -0.167.
In the same order, the values of “MLWLALGPFPAMENQVLVIRIKIPNSGAVDWTVHSGPQLLFRDVLDVIGQVLPEATTTAFEYEDEDGDRITVRSDEEMKAMLSYYYSTVMEQQVNGQLIEPLQIFPRACKPPGERNIHGLKVNTRAGPSQHSSPAVSDSLPSNSLKKSSAELKKILANGQMNEQDIRYRDTLGHGNGGTVYKAYHVPSGKILAVKVILLDITLELQKQIMSELEILYKCDSSYIIGFYGAFFVENRISICTEFMDGGSLDVYRKMPEHVLGRIAVAVVKGLTYLWSLKILHRDVKPSNMLVNTRGQVKLCDFGVSTQLVNSIAKTYVGTNAYMAPERISGEQYGIHSDVWSLGISFMELALGRFPYPQIQKNQGSLMPLQLLQCIVDEDSPVLPVGEFSEPFVHFITQCMRKQPKERPAPEELMGHPFIVQFNDGNAAVVSMWVCRALEERRSQQGPP [MAP2K5]” are 0.128 and -0.109.
Take “MFSLKPPKPTFRSYLLPPPQTDDKINSEPKIKKLEPVLLPGEIVVNEVNFVRKCIATDTSQYDLWGKLICSNFKISFITDDPMPLQKFHYRNLLLGEHDVPLTCIEQIVTVNDHKRKQKVLGPNQKLKFNPTELIIYCKDFRIVRFRFDESGPESAKKVCLAIAHYSQPTDLQLLFAFEYVGKKYHNSANKINGIPSGDGGGGGGGGNGAGGGSSQKTPLFETYSDWDREIKRTGASGWRVCSINEGYMISTCLPEYIVVPSSLADQDLKIFSHSFVGRRMPLWCWSHSNGSALVRMALIKDVLQQRKIDQRICNAITKSHPQRSDVYKSDLDKTLPNIQEVQAAFVKLKQLCVNEPFEETEEKWLSSLENTRWLEYVRAFLKHSAELVYMLESKHLSVVLQEEEGRDLSCCVASLVQVMLDPYFRTITGFQSLIQKEWVMAGYQFLDRCNHLKRSEKESPLFLLFLDATWQLLEQYPAAFEFSETYLAVLYDSTRISLFGTFLFNSPHQRVKQSTEFAISKNIQLGDEKGLKFPSVWDWSLQFTAKDRTLFHNPFYIGKSTPCIQNGSVKSFKRTKKSYSSTLRGMPSALKNGIISDQELLPRRNSLILKPKPDPAQQTDSQNSDTEQYFREWFSKPANLHGVILPRVSGTHIKLWKLCYFRWVPEAQISLGGSITAFHKLSLLADEVDVLSRMLRQQRSGPLEACYGELGQSRMYFNASGPHHTDTSGTPEFLSSSFPFSPVGNLCRRSILGTPLSKFLSGAKIWLSTETLANED [MTMR10]”: in the series on HeLa Kyoto [1], the “solubility in G1/S (log2)” value is -0.147. Further, the “solubility change mitosis (log2)” value in the series on HeLa Kyoto [2] came out at 0.00531.
Taken in the same sequence, the figures for “MAETKIIYHMDEEETPYLVKLPVAPERVTLADFKNVLSNRPVHAYKFFFKSMDQDFGVVKEEIFDDNAKLPCFNGRVVSWLVLAEGAHSDAGSQGTDSHTDLPPPLERTGGIGDSRPPSFHPNVASSRDGMDNETGTESMVSHRRERARRRNREEAARTNGHPRGDRRRDVGLPPDSASTALSSELESSSFVDSDEDGSTSRLSSSTEQSTSSRLIRKHKRRRRKQRLRQADRASSFSSITDSTMSLNIVTVTLNMERHHFLGISIVGQSNDRGDGGIYIGSIMKGGAVAADGRIEPGDMLLQVNDVNFENMSNDDAVRVLREIVSQTGPISLTVAKCWDPTPRSYFTVPRADPVRPIDPAAWLSHTAALTGALPRYGTSPCSSAVTRTSSSSLTSSVPGAPQLEEAPLTVKSDMSAVVRVMQLPDSGLEIRDRMWLKITIANAVIGADVVDWLYTHVEGFKERREARKYASSLLKHGFLRHTVNKITFSEQCYYVFGDLCSNLATLNLNSGSSGTSDQDTLAPLPHPAAPWPLGQGYPYQYPGPPPCFPPAYQDPGFSYGSGSTGSQQSEGSKSSGSTRSSRRAPGREKERRAAGAGGSGSESDHTAPSGVGSSWRERPAGQLSRGSSPRSQASATAPGLPPPHPTTKAYTVVGGPPGGPPVRELAAVPPELTGSRQSFQKAMGNPCEFFVDIM [DVL1]” were -0.0781 and 0.0447.
In the same order, the values of TNRC18 are 0.0268 and -0.234.
In the same order, the values of “MGAAGSSALARFVLLAQSRPGWLGVAALGLTAVALGAVAWRRAWPTRRRRLLQQVGTVAQLWIYPVKSCKGVPVSEAECTAMGLRSGNLRDRFWLVINQEGNMVTARQEPRLVLISLTCDGDTLTLSAAYTKDLLLPIKTPTTNAVHKCRVHGLEIEGRDCGEATAQWITSFLKSQPYRLVHFEPHMRPRRPHQIADLFRPKDQIAYSDTSPFLILSEASLADLNSRLEKKVKATNFRPNIVISGCDVYAEDSWDELLIGDVELKRVMACSRCILTTVDPDTGVMSRKEPLETLKSYRQCDPSERKLYGKSPLFGQYFVLENPGTIKVGDPVYLLGQ [MARC1]” are 0.00278 and -0.0926.
DDX60: the “solubility in G1/S (log2)” value in the series with HeLa Kyoto [1] is -0.517. Also, the “solubility change mitosis (log2)” value with HeLa Kyoto [2] is -0.0365.
In the same order, the values of “MRVDSSADPTMSQEQGPGSSTPPSSPTLLDALLQNLYDFGGTEGETEQKKIIKKRENKKRDVMASAALAAEPSPLPGSLIRGQRKSASSFFKELREERHCAPSGTPTGPEILAAAVPPSSLKNNREQVEVVEFHSNKKRKLTPDHNKNTKQANPSVLERDVDTQEFNLEKARLEVHRFGITGYGKGKERILEQERAIMLGAKPPKKSYVNYKVLQEQIKEKKAAKEEEKRLAQETDIFKKKKRKGQEDRKSKKKSAPSILSNGRIGQVGKFKNGTLILSPVDIKKINSSRVAK [C1ORF131]” are -1.24 and 0.969.
In the same order, the values of “MSWLFPLTKSASSSAAGSPGGLTSLQQQKQRLIESLRNSHSSIAEIQKDVEYRLPFTINNLTININILLPPQFPQEKPVISVYPPIRHHLMDKQGVYVTSPLVNNFTMHSDLGKIIQSLLDEFWKNPPVLAPTSTAFPYLYSNPSGMSPYASQGFPFLPPYPPQEANRSITSLSVADTVSSSTTSHTTAKPAAPSFGVLSNLPLPIPTVDASIPTSQNGFGYKMPDVPDAFPELSELSVSQLTDMNEQEEVLLEQFLTLPQLKQIITDKDDLVKSIEELARKNLLLEPSLEAKRQTVLDKYELLTQMKSTFEKKMQRQHELSESCSASALQARLKVAAHEAEEESDNIAEDFLEGKMEIDDFLSSFMEKRTICHCRRAKEEKLQQAIAMHSQFHAPL [VPS37A]” are 0.656 and -0.0301.
In the same order, the values of “MQPGSSRCEEETPSLLWGLDPVFLAFAKLYIRDILDMKESRQVPGVFLYNGHPIKQVDVLGTVIGVRERDAFYSYGVDDSTGVINCICWKKLNTESVSAAPSAARELSLTSQLKKLQETIEQKTKIEIGDTIRVRGSIRTYREEREIHATTYYKVDDPVWNIQIARMLELPTIYRKVYDQPFHSSALEKEEALSNPGALDLPSLTSLLSEKAKEFLMENRVQSFYQQELEMVESLLSLANQPVIHSASSDQVNFKKDTTSKAIHSIFKNAIQLLQEKGLVFQKDDGFDNLYYVTREDKDLHRKIHRIIQQDCQKPNHMEKGCHFLHILACARLSIRPGLSEAVLQQVLELLEDQSDIVSTMEHYYTAF [OBFC1]” are 0.0155 and -0.0863.
